# In paper PMC9253517 (The Journal of Experimental Medicine, 2022):
# B1: JN008 (antibody, V domains shown)
# VH: EVQLVESGGDLIQPGGSLRLSCAASGFTVSSNYMNWVRQAPGKGLEWVSIIYSGGSTFYADSVKGRFTISRDNSKNTLYLQMNSLRVEDTATYFCARSYGDYYFDSWGQGTLVTVSS
# VL: EIVLTQSPATLSLSPGERATLSCRASQSVSSYLAWYQQKPGQAPRLLIYDASNRATGIPARFSGSGSGTDFTLTISSLEPEDFAVYYCQQRSNWPPSFTFGPGTKVDIK
# B2: JN028 (antibody, V domains shown)
# VH: EVQLVESGGGLVQPGGSLRLSCAASGFTFSSYSMNWVRQAPGKGLEWVSYISSSSSTIYYADSVKGRFTISRDNAKNSLYLQMNSLRDEDTAVYYCAPLRVLGGMDVWGQGTTVTVSS
# VL: SYELTQPPSVSVSPGQTARIICSGDALPKQYAYWYQQKPGQAPVLVIYKDSERPSGIPERFSGSSSGTTVTLTISGVQAEDEADYYCQSADSSGWVFGGGTKLTVL
# B3: JN013 (antibody, V domains shown)
# VH: QLQLQESGPGLVKPSETLSLTCTVSGGSISSSSYYWGWIRQPPGKGLEWIGSIYYSGSTYYNPSLKSRVTISVDTSKKQFSLKLSSVTAADTAVYYCARTYYDYIWGSLLGDFWGQGTLVTVSS
# VL: QSALTQPRSVSGSPGQSVTISCTGTSSDVGGYNYVSWYQQHPGKAPKLMIYDVSKRPSGVPDRFSGSKSGNTASLTISGLQAEDEADYYCCSYAGSYWVFGGGTKLTVL
# B4: JN017 (antibody, V domains shown)
# VH: EVQLVESGGGLVQPGGSLRLSCAASGFTFTNHWMTWVRQAPGRGLEWVANIEGDGSDKYYVDSVKGRFTISRDNAKYSLYLHMNSLRGEDTAVYYCARHSGTYHGLDYWGQGTLVTVSS
# VL: QSALTQPRSVSGSPGQSVTISCTGTSSDVGGYNYVSWYQEHPGKAPKLMIYDVSKRPSGVPDRFSSSKSGNTASLTISGLQAEDEADYYCYAFAGTTWMFGGGTKLTVL
# B5: JN219 (antibody, V domains shown)
# VH: QLQLQESGPGLVKPSETLSLTCTVSGGSISSSSYYWGSYYWGWIRQPPGKGLEWIASIYYSGTTYYNPSLKSRVTISVDTSKNQFSLKLSSVTAADTAVYYCASRYCSGGSCSLDYWGQGTLVTVSS
# VL: QSALTQPRSLSGSPGQSVTISCTGTSSDVGSYNYVSWYQQHPGKAPKLMIYDVSKRPSGVPDRFSGSKSGNTASLTISGLQAEDEADYYCCSYAGSYTLWVFGGGTKLTVL
# B6: JN015 (antibody, V domains shown)
# VH: QLQLQESGPGLVKPSETLSLTCTVSGGSISGSSYYWGWIRQPPGKGLEWFGSIYYSGTTYYNPSLKSRVAISVDTSKKQFSLKLSSVTAADTAVYYCAARYFDWSVEYWGQGTLVTVSS
# VL: QSALTQPRSVSGSPGQSVTISCTGTSSDVGGYNYVSWYQQQPGKAPKLMIYDVSKRPSGVPDRFSGSKSGNTASLTISGLQAEDEADYHCCSYAGSYTYWLFGGGTKLTVL
# B7: JN007 (antibody, V domains shown)
# VH: EVQLVESGGGLIQPGGSLRLSCAASGFTVSSNYMSWVRQAPGKGLEWVSVIYTGGSTYYADSVKGRFTISRDNSNNSLYLRMNSLRAEDTAVYYCARGPYYDFRSGYSPGWFDPWGQGTLVTVSS
# VL: not shown
# B8: JN115 (antibody, V domains shown)
# VH: QVQLVQSGAEVRKPGASVKVSCKVSGYTLIDLSIHWVRQAPGKGLEWMGGFDPEDGETIYAQKFQGRVTMTEDTSTDTAYMELSSLRSEDTAVYYCATSSSIVISGWFDPWGQGTLVTVSS
# VL: QSALTQPASVSGSPGQSITISCTGTSSDVSGYNYVSWYQQHPGKVPKLLIYDVSNRPSGVSNRFSGSKSGNTASLTISGLQAEDEADYYCSSYTSSSTLVYVFGTGTKVTVL
# B9: JN012 (antibody, V domains shown)
# VH: QLQLQESGPGLVKPSETLSLTCTVSGGSISSGSYYWVWIRQPPGKGLEWIGSVYYSGTTYYNPSLKSRVTISIDTSKNQFSLRLSSVTAADTAVYYCATNNYSFLTGYYVLDYWGQGTLVTVSS
# VL: SYELTQPPSVSVSLGQMARITCSGEALPKTYAYWYQQKPGQFPVLVIYKDSERPSGIPERFSGSRSGTIVTLTISGVQAEDEADYYCLSTDISGTWVFGGGTKLTVL
# B10: JN018 (antibody, V domains shown)
# VH: QVQLQESGPGLVKPSETLSLTCTVSGGSISGSYWSWMRQPAGKPLEWIGRIYVSGSYNRNPSLSSRVTVSEDTAKNQISLRLTSVTAADTAVYYCAREIMGWYFDLWGRGTLVTVSS
# VL: EIVMTQSPGTLSVSPGERATLSCRASQSVRSSLAWYQQKPGQAPRLLIYDASTRATGIPARFSGSGSGTEFTLTISSLQSEDFAIYLCQQYYNWPSYTFTQGTKLEIK
# B11: JN105 (antibody, V domains shown)
# VH: QVQLVQSGAEVKKPGASVKVSCKASGYTFTSYGISWVRQAPGQGLEWMGWISAYNGNTNYAQKLQGRVTMTTDTSTSTAYMELRSLRSDDTAVYYCARDLQRAGPWADYDFWSGYYPPSNMDVWGQGTTVTVSS
# VL: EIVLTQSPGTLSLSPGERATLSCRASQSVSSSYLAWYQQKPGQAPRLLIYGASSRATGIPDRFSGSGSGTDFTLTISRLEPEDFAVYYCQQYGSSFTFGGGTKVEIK
# B12: JR340 (antibody, V domains shown)
# VH: EVQLVESGGGLVQPGRSLRLSCTASGFTFHDYALQWVRQVPGKGLEWVSGISWNSASTGYADSVKGRFTISRDNAKNSLYLQMNSLRAEDTALYYCAKVRSTSCYLACGMDVWGQGTTVTVSS
# VL: QSALTQPASVSGSPGQSITISCTGTSSDVGSYNLVSWYQQHPGKAPKLMISEVSKRPSGVSNRFSGSKSGNTASLTISGLQAEDEADYYCCSYALSRILFGGGTKLTVL
# B13: JN109 (antibody, V domains shown)
# VH: QVQLVESGGGVVQPGRSLRLSCAASGFTFSSYGMHWVRQAPGKGLEWVAVIWYDGSNKYYADSVKGRFTISRDNSKNTLYLQMNSLRAEDTAVYYCARVRTIFRPLDYMDVWGKGTTVTVSS
# VL: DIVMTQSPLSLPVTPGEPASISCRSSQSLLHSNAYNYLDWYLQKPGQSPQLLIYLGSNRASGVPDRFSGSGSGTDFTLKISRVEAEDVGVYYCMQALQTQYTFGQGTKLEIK
# B14: JN117 (antibody, V domains shown)
# VH: QVQLVQSGAEVKKPGASVKVSCKASGYTFTSYDINWVRQATGQGLEWMGWMNPNSGNTGYAQKFQGRVTMTRNTSISTAYMELSSLRSEDTAVYYCALGTTPWYYFDYWGQGTLVTVSS
# VL: SYELTQPPSVSVSPGQTARITCSGDALPKQYAYWYQQKPGQAPVLVIYKDSERPSGIPERFSGSSSGTTVTLTISGVQAEDEADYYCQSADSSGTYVFGTGTKVTVL
# B15: JN030 (antibody, V domains shown)
# VH: EVQLVESGGGLVKPGGSLRLSCAASGFTFSNYNMNWVRQAPGKGLEWVSSISTSGSFIYYADSVKGRFTISRDNAKNSLYLQMNSLRAEDTAVYYCARDTTPYSSGWYLWYFDLWGRGTLVTVSS
# VL: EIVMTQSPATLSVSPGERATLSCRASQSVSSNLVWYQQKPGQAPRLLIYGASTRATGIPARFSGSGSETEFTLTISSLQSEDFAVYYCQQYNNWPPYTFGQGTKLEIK
# B16: JN103 (antibody, V domains shown)
# VH: EVQLVKSGGGLIQPGGSLRLSCAASGFTVSSNYMSWVRQAPGKGLEWVSVIYSGGSTYYADSVKGRFTISRDNSKNTLYLQMNSLRAEDTAVYYCARDLYSSGGTDIWGQGTMVTVSS
# VL: QTVVTQEPSFSVSPGGTVTLTCGLTSGSVSTSHYPSWYQQTPGQAPRTLIDSTNIRSFGVPDRFSGSILGNKAALTITGAQADDEADYYCILYVGNGIWMFGGGTRLTVL
# B17: JN218 (antibody, V domains shown)
# VH: EVQLVESGGGLVKPGGSLRLSCAASGFTFSSYTMNWVRQAPGKGLEWVSSISTGSSNIYYTDSVKGRFTISRDNARNSLSLQMNSLRAEDTAVYYCAREGRFIGTGYWSDFSYALDVWGQGTTVTVSS
# VL: EIVLTQSPGTLSLSPGERATLSCRASQSVSSSSLAWYQQTPGQAPRLLIYGASSRATGIPDRFSGSGSGTDFTLTISRLEPEDFAVYYCQQYGSSVGAFGQGTKLEIK
# B18: JN026 (antibody, V domains shown)
# VH: QVQLQESGPGLVKPSETLSLTCTVSGGSISSYYWSWIRQPPGKGLEWIGYIYYSGSTNYNPSLKSRVTISVDTSKNQFSLKLSSVTAADTAVYYCARHSLTYYYDRSDYKGAFDIWGQGTMVTVSS
# VL: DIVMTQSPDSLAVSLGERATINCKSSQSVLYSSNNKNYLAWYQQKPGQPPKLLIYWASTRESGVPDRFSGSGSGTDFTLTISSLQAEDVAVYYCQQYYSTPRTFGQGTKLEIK
# B19: JN022 (antibody, V domains shown)
# VH: QVQLQESGPGLVKPSETLSLTCTVSGDSIRNYYWSWIRQPPGKGLEWMGYIYYSGSTNYNPSLKSRVTISVDTSKNQFSLKLSSVTAADTAVYYCARHSLTYYYDSSDYKGAFDIWGQGTMVTVSS
# VL: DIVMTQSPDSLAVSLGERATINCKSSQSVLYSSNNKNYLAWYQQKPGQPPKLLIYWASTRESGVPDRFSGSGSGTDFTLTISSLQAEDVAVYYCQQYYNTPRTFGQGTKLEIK
# B20: JN104 (antibody, V domains shown)
# VH: QVQLQESGPGLVKPSGTLSLTCAVSGGSISSNKWWSWVRQPPGKGLEWIGEIYHSGSTNYNPSLKSRVTISVDKSKNQFSLKLSSVTAADTAVYYCAILRYGSGSSLPPDNWGQGTLVTVSS
# VL: EIVMTQSPATLSVSPGERATLSCRASQIISNNLAWHQQKPGQAPRLLIYGASTRATGIPARFSGSGSGTEFTLTISSLQSEDFAVYYCQQYNNWPPLLTFGGGTKVEIK
# B21: JN110 (antibody, V domains shown)
# VH: QVQLVQSGAEVKKPGSSVKVSCKASGGTFSSYAISWVRQAPGQGLEWMGGIIPIFGTANYAQKFQGRVTITADKSTSTAYMELSSLRSEDTAVYYCARDPAFYYDILTGYGGYYYYGMDVWGQGTTVTVSS
# VL: DIVMTQTPLSLSVTPGQPASISCKSSQSLLHSDGKTYLYWYLQKPGQPPQLLIYEVSNRFSGVPDRFSGSGSGTDFTLKISRVEAEDVGVYYCMQSIQLPPTFGQGTKVEIK
# B22: JN010 (antibody, V domains shown)
# VH: EVQLVESGGDLIQPGGSLKLSCAASGVTVSSNYMTWVRQAPGKGLEWVSLIYSGGSTFYADSVKGRFTISRDNSKNTLYLLMNSLRVEDTAVYYCARDLRYYGMDVWGQGTTVTVSS
# VL: QTVVTQEPSFSVFPGGTVTLTCGLSSGSVSTNNYPTWYQQTPGQPPRTLIYSTDTRSSGVPDRFFGSILGNKAALTITGTQADDESHYYCVLLVGSGANAKWVFGGGTKLTVL
# B23: JN003 (antibody, V domains shown)
# VH: EVQLVESGGGLVQPGGSLRLSCAASGFTFNSYWMTWIRQAPGKGLEWVANIAPDGSDTYYVDSVRGRFIISRDNAKNSLYLHMNSLRPEDTAVYYCANTPAAVGEYWGQGTLVTVSS
# VL: QAVVTQEPSLSVSPGGTVTVTCGLSSGSVSTNNYPTWYQQTPGQPPRTLMYSTNTRSPGVLDRFSGSILGNKAALTITGAQADDESHYYCVLLVGSGANAKWVFGGGTKLTVL
# Legend:
# [1] = target: SARS-CoV-2 Wuhan-Hu-1 NTD (SARS-CoV-2, UniProt P0DTC2 14-307); experiment: cell-based or functional assay
# [2] = target: T1, SARS-CoV-2 Wuhan-Hu-1 RBD (SARS-CoV-2, Wuhan-Hu-1 (GenBank …, UniProt P0DTC2)); experiment: BLI; conditions: both partners purified
# [3] = target: T1, SARS-CoV-2 Wuhan-Hu-1 RBD; experiment: cell-based or functional assay
Binder,"neutralisation IC50, WT (293TAce2) [1]",other results
B1,> 1 µg/mL,
B2,> 1 µg/mL,
B3,> 1 µg/mL,
B4,> 1 µg/mL,
B5,> 1 µg/mL,
B6,> 1 µg/mL,
B7,> 1 µg/mL,
B8,> 1 µg/mL,
B9,> 1 µg/mL,
B10,> 1 µg/mL,
B11,> 1 µg/mL,
B12,,"binding result [2]: binds; neutralisation IC50, Wuhan-Hu-1 pseudovirus [3]: > 1 µg/mL"
B13,> 1 µg/mL,
B14,> 1 µg/mL,
B15,0.348 µg/mL,
B16,> 1 µg/mL,
B17,> 1 µg/mL,
B18,> 1 µg/mL,
B19,> 1 µg/mL,
B20,> 1 µg/mL,
B21,> 1 µg/mL,
B22,> 1 µg/mL,
B23,> 1 µg/mL,
